Experimental data reported in patent US20240117030A1 (Pfizer, published 2024).
Numbering of substitutions follows the chain as printed. Like-named read-outs stand apart in the source and are kept apart here. Each block holds one binder with its values, some of them ahead of it.

Key:
recombinant human IL-4 [1] = target: T1, recombinant human IL-4 (human, UniProt P05112 25-153); test: cell-based or functional assay
T1 sequence (looked up): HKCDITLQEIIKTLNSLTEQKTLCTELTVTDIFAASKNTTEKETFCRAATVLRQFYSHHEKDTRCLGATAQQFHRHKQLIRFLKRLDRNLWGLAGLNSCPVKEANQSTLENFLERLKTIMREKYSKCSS

recombinant human IL-13 = recombinant human IL-13 (human, UniProt P35225 35-146); test: cell-based or functional assay
Sequence of recombinant human IL-13 (P35225 35-146 limits assumed): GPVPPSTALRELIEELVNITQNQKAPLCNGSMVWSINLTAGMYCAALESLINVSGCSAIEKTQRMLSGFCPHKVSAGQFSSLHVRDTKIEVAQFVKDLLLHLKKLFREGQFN

IL-33 mm2 [2] = target: T2, IL-33 mm2 (human, UniProt O95760 112-270, limits assumed); test: cell-based or functional assay
T2 sequence (looked up): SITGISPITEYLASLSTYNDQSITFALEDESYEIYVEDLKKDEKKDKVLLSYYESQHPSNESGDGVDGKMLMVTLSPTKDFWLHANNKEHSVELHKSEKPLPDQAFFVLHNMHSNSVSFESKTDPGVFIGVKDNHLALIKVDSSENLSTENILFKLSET

recombinant human IL-4 [3] = target: T1, recombinant human IL-4; test: cell-based or functional assay; remark: listed apart in the source
recombinant human IL-4 [4] = target: T1, recombinant human IL-4; test: cell-based or functional assay; remark: listed apart in the source
[5] = target: T3, biotinylated human IL-33 wild-type (WT), reduced with 3 mM DTT (human, UniProt O95760 112-270, limits assumed, biotinylated (site not stated)); test: KinExA solution affinity, fixed antigen format, global fit
T3 sequence (looked up): T2 sequence (looked up) with S97C, S116C, S121C, S148C

[6] = target: T4, recombinant human IL-33 (R&D Systems 3625-IL), reduced with DTT (human, UniProt O95760 112-270, limits assumed); test: cell-based or functional assay
T4 sequence (looked up): T2 sequence (looked up) with S97C, S116C, S121C, S148C

[7] = target: T4, recombinant human IL-33 (R&D Systems …); test: cell-based or functional assay; remark: listed apart in the source
IL-33 mm2 [8] = target: T2, IL-33 mm2; test: cell-based or functional assay; remark: listed apart in the source
recombinant human IL-33 = target: T5, recombinant human IL-33 (human, UniProt O95760 112-270, limits assumed); test: cell-based or functional assay
T5 sequence (looked up): T2 sequence (looked up) with S97C, S116C, S121C, S148C

human IL-33 mm2 Cys = target: T6, human IL-33 mm2 Cys (human, UniProt O95760 112-270, limits assumed); test: cell-based or functional assay
T6 sequence (looked up): T2 sequence (looked up)

[9] = target: T4, recombinant human IL-33 (R&D Systems …); test: cell-based or functional assay; remark: listed apart in the source
recombinant human IL-12 [10] = target: T7, recombinant human IL-12 (human, UniProt P29459 23-219; P29460 23-328); test: cell-based or functional assay
T7 sequence (looked up) 1: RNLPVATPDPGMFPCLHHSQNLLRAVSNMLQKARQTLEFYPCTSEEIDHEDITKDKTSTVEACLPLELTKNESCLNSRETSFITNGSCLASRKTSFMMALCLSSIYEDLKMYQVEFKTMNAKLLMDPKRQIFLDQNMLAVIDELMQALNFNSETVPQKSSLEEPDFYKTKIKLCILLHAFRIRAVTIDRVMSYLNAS
T7 sequence (looked up) 2: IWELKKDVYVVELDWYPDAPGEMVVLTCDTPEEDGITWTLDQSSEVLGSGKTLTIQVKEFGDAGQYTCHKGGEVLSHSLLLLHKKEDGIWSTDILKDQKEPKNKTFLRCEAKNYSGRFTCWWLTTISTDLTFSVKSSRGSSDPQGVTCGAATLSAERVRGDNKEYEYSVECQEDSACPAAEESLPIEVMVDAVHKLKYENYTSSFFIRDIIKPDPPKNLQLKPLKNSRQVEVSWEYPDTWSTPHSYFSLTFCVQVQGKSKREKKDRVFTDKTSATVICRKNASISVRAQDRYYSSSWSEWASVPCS

recombinant human IL-23 [11] = target: T8, recombinant human IL-23 (human, UniProt Q9NPF7 20-189; P29460 23-328); test: cell-based or functional assay
T8 sequence (looked up) 1: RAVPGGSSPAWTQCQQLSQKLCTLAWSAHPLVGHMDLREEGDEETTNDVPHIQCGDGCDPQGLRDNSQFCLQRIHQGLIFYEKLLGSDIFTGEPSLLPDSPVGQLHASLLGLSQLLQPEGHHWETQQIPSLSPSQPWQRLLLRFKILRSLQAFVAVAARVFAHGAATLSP
T8 sequence (looked up) 2: T7 sequence (looked up) 2

recombinant human IL-12 [12] = target: T7, recombinant human IL-12; test: cell-based or functional assay; remark: listed apart in the source
recombinant human IL-23 [13] = target: T8, recombinant human IL-23; test: cell-based or functional assay; remark: listed apart in the source

- IL-4 Induced CD23 Expression, potency of cytokine neutralization (recombinant human IL-4 [1]): 0.0669 nM
- IL-13 Induced CD23 Expression, potency of cytokine neutralization (recombinant human IL-13): 0.0203 nM
- IL-33 mm2 Cys Activation of SEAP Reporter Cells, potency of cytokine neutralization (IL-33 mm2 [2]): 0.182 nM
B1: IL13433-0607 (other)
heavy: EVQLVESGGGLVQPGGSLRLSCAASGFTFSSYAMSWVRQAPGKGLEWVASISTGDTTYYPDSVKGRFTISRDNAKNSLYLQMNSLRAEDTAVYYCARNEGYYFGLTQWGRGTLVTVSSASTKGPSVFPKAPSSKSTSGGTAALGCLVKDYFPEPVTVSWNSGALTSGVHTFPAVLQSSGLYSLSSSVTVPSSSLGTQTYICNVNHKPSNTKVDKKVEPKSCDKTHTCPPCPAPEAAGAPSVFLFPPKPKDTLMISRTPEVTCVVVDVSHEDPEVKFNWYVDGVEVHNAKTKPREEQYNSTYRVVSVLTVLHQDWLNGKEYKCKVSNKALPAPIEKTISKAKGQPREPQVCTLPPSREEMTKNQVSLWCLVKGFYPSDIAVEWESNGQPENNYKTTPPVLDSDGSFFLYSKLTVDKSRWQQGNVFSCSVLHEALHSHYTQKSLSLSPGK
chain 1: DIQMTQSPSSLSASVGDRVTITCRASQPISKHLDWYQQKPGKAPKLLIYFTNNLQTGVPSRFSGSGSGTDFTLTISSLQPEDFATYYCFQYNQGWTFGGGTKVEIKRTVAAPSVFIFPPSDEQLKSGTASVVCLLNNFYPREAKVQWKVDNALQSGNSQESVTEQDSKDSTYSLSSTLTLSKADYEKHKVYACEVTHQGLSSPVTKSFNRGECGGGGSEVTLRESGPALVKPTQTLTLTCTFSGFSLSNFGEGLSWIRQPPGKGLEWLAHIYWDDDKRYSTSLKTRLTISKDTSRNQVVLTMTNMDPVDTATYYCARRETVFYWYFDVWGQGTTVTVSSASTKGPSVFPEAPSSKSTSGGTAALGCLVKDYFPEPVTVSWNSGALTSGVHTFPAVLQSSGLYSLGSVVTVPSSSLGTQTYICNVNHKPSNTKVDKKVEPKSCDKTHTCPPCPAPEAAGAPSVFLFPPKPKDTLMISRTPEVTCVVVDVSHEDPEVKFNWYVDGVEVHNAKTKPREEQYNSTYRVVSVLTVLHQDWLNGKEYKCKVSNKALPAPIEKTISKAKGQPREPQVYTLPPCREEMTKNQVSLSCAVKGFYPSDIAVEWESNGQPENNYKTTPPVLDSDGSFFLVSKLTVDKSRWQQGNVFSCSVLHEALHSHYTQKSLSLSPGK
light 1: DIQMTQSPSSLSASVGDRVTITCRASESVDHFGWSLVHWYQQKPGKAPKLLIYRADSLETGVPSRFSGSGSGTDFTLTISSLQPEDFATYYCQQSNEDPWTFGGGTKVEIKRTVAAPSVFIFPPSDEQLKSGTASVSCLLNNFYPREAKVQWKVDNALQSGNSQESVTEQDSKDSTYSLDSTLTLSKADYEKHKVYACEVTHQGLSSPVTKSFNRGEC
light 2: DIQMTQSPSSLSASVGDRVTITCRASQSVDEEGDSYMNWYQQKPGKAPKLLIYAASNLESGVPSRFSGSGSGTDFTLTISSLQPEDFATYYCQQSHKDPPTFGGGTKVEIKRTVAAPSVFIFPPSDEQLKSGTASVSCLLNNFYPREAKVQWKVDNALQSGNSQESVTEQDSKDSTYSLKSTLTLSKADYEKHKVYACEVTHQGLSSPVTKSFNRGEC
chain 2: EVQLVESGGGLVQPGGSLRLSCAASGFTFSSYWMYWVRQAPGKGLEWVAAITPNAGEDYYPESVKGRFTISRDNAKNSLYLQMNSLRAEDTAVYYCARGHYYYTSYSLGYWGQGTLVTVSSASTKGPSVFPLAPSSKSTSGGTAALGCLVKDYFPEPVTVSWNSGALTSGVHTFPAVLQSSGLYSLSSVVTVPSSSLGTQTYICNVNHKPSNTKVDKKVEPKSC

- IL-4 induced CD23 upregulation (IC50), parental IgG (recombinant human IL-4 [3]): 0.00206 nM
- IC50 (median), IL-4 induced CD23 expression on human monocytes (recombinant human IL-4 [4]): 0.00209 nM
B2: IL4-0002 (antibody, human IgG1, kappa)
heavy: EVTLRESGPALVKPTQTLTLTCTFSGFSLSNFGEGLSWIRQPPGKGLEWLAHIYWDDDKRYNPSLKSRLTISKDTSRNQVVLTMTNMDPVDTATYYCARRETVFYWYFDVWGQGTTVTVSSASTKGPSVFPLAPSSKSTSGGTAALGCLVKDYFPEPVTVSWNSGALTSGVHTFPAVLQSSGLYSLSSVVTVPSSSLGTQTYICNVNHKPSNTKVDKKVEPKSCDKTHTCPPCPAPEAAGAPSVFLFPPKPKDTLMISRTPEVTCVVVDVSHEDPEVKFNWYVDGVEVHNAKTKPREEQYNSTYRVVSVLTVLHQDWLNGKEYKCKVSNKALPAPIEKTISKAKGQPREPQVYTLPPSREEMTKNQVSLTCLVKGFYPSDIAVEWESNGQPENNYKTTPPVLDSDGSFFLYSKLTVDKSRWQQGNVFSCSVMHEALHNHYTQKSLSLSPGK
light: B1 light 2 with R24K, E32D, H96N, K97E, S137V, K180S

- IL-4 induced CD23 upregulation (IC50), parental IgG (recombinant human IL-4 [3]): 0.00323 nM
- IC50 (median), IL-4 induced CD23 expression on human monocytes (recombinant human IL-4 [4]): 0.00323 nM
B3: IL4-1040 (antibody, human IgG1, kappa, V domains shown)
VH: EVTLRESGPALVKPTQTLTLTCTFSGFSLSNFGEGLSWIRQPPGKGLEWLAHIYWDDDKRYNPSLKSRLTISKDTSRNQVVLTMTNMDPVDTATYYCARRETVFYWYFDVWGQGTTVTVSS
VL: DIQMTQSPSSLSASVGDRVTITCRASQSVDEEGDSYMNWYQQKPGKAPKLLIYAASNLESGVPSRFSGSGSGTDFTLTISSLQPEDFATYYCQQSNKDPPTFGGGTKVEIKR

- Kd [5]: < 0.000237 nM
- IC50 [pM] versus human reduced IL-33 (R&D), Experiment 2 (HEK-Blue SEAP) [6]: 6 pM
- IC50 [nM] versus reduced human IL-33 (R&D), IC50 (AVE) [7]: 0.008 nM
B4: IL33-0726 (antibody, human IgG1, kappa, V domains shown)
VH: EVQLVESGGGLVQPGGSLRLSCAASGFTFSSYWMYWVRQAPGKGLEWVAAITPNAGEDYYPESVKGRFTISRDNAKNSLYLQMNSLRAEDTAVYYCARGQYYYTKYSLGYWGQGTLVTVSS
VL: DIQMTQSPSSLSASVGDRVTITCRASQPIHNHLDWYQQKPGKAPKLLIYFGKNLQEGVPSRFSGSGSGTDFTLTISSLQPEDFATYYCFQYKKGWSFGGGTKVEIKR
notes: also called IL33-0726 IgG; IL13433-0726

- IC50 (mean), IFNg Whole Blood (IL-12 plus IL-33 mm2-Cys) (IL-33 mm2 [8]): 0.0162 nM
- IC50 (mean), HEK-Blue IL-33 SEAP (recombinant human IL-33): 0.0562 nM
B5: IL33-158LS (antibody, V domains shown)
VH: B4 VH with Q100H, K105S
VL: DIQMTQSPSSLSASVGDRVTITCKASQNINKHLDWYQQKPGKAPKLLIYFTNNLQTGVPSRFSGSGSGTDFTLTISSLQPEDFATYYCFQYNQGWTFGGGTKVEIK

- Kd [5]: 0.0034 nM
- IC50 [pM] versus human reduced IL-33 (R&D), Experiment 1 (HEK-Blue SEAP) [6]: 35 pM
- IC50 [pM] versus human IL-33 mm2 Cys (HEK-Blue SEAP) (human IL-33 mm2 Cys): 142 pM
- IC50 [nM] versus reduced human IL-33 (R&D), IC50 (AVE) [9]: 0.071 nM
- IC50 [nM] versus reduced human IL-33 (R&D), IC50 (AVE) [7]: 0.109 nM
B6: IL33-0232 (antibody, human IgG1, kappa, V domains shown)
VH: B4 VH with Q100H, K105S
VL: B4 VL with R24K, P28N, H30N, N31K, G51T, K52N, E56T, K92N, K93Q, S96T

- IC50 (mean), Kit-225 assay, IL-12 induced phospho-STAT4 (recombinant human IL-12 [10]): 0.155 nM
- IC50 (mean), Whole blood assay, IL-12 induced phospho-STAT4 (recombinant human IL-12 [10]): 0.262 nM
- IC50 (mean), Kit-225 assay, IL-23 induced phospho-STAT3 (recombinant human IL-23 [11]): 0.85 nM
- IC50 (mean), Whole blood assay, IL-23 induced phospho-STAT3 (recombinant human IL-23 [11]): 4.51 nM
- IC50 (mean), Kit-225 assay, IL-12 induced phospho-STAT4 (recombinant human IL-12 [12]): 0.155 nM
- IC50 (mean), Whole blood assay, IL-12 induced phospho-STAT4 (recombinant human IL-12 [12]): 0.262 nM
- IC50 (mean), Kit-225 assay, IL-23 induced phospho-STAT3 (recombinant human IL-23 [13]): 0.85 nM
- IC50 (mean), Whole blood assay, IL-23 induced phospho-STAT3 (recombinant human IL-23 [13]): 4.51 nM
B7: p40-0003 (antibody, human IgG1, kappa, V domains shown)
VH: EVQLVQSGAEVKKPGESLKISCKGSGYSFTTYWLGWVRQMPGKGLDWIGIMSPVDSDIRYSPSFQGQVTMSVDKSITTAYLQWNSLKASDTAMYYCARRRPGQGYFDFWGQGTLVTVSS
VL: DIQMTQSPSSLSASVGDRVTITCRASQGISSWLAWYQQKPEKAPKSLIYAASSLQSGVPSRFSGSGSGTDFTLTISSLQPEDFATYYCQQYNIYPYTFGQGTKLEIKR
